PMC8614738 (2021)

Target: oligomeric EF-Tu (^OligoEF-Tu), unfolded (UniProt P0CE47 1-394)
Assay: ITC; 20 °C

Sequence of oligomeric EF-Tu (^OligoEF-Tu), unfolded (P0CE47 whole entry): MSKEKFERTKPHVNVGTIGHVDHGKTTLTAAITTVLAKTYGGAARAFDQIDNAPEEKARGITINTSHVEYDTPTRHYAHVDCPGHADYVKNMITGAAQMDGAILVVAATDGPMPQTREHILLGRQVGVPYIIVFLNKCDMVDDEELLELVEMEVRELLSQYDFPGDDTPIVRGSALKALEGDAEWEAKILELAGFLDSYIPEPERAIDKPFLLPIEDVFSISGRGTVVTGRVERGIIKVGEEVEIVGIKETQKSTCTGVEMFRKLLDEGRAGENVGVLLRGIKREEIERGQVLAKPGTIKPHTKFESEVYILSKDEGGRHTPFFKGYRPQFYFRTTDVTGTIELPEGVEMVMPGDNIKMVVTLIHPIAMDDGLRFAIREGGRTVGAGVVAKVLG

B1: trigger factor (TF) (natural protein)
chain: MQVSVETTQGLGRRVTITIAADSIETAVKSELVNVAKKVRIDGFRKGKVPMNIVAQRYGASVRQDVLGDLMSRNFIDAIIKEKINPAGAPTYVPGEYKLGEDFTYSVEFEVYPEVELQGLEAIEVEKPIVEVTDADVDGMLDTLRKQQATWKEKDGAVEAEDRVTIDFTGSVDGEEFEGGKASDFVLAMGQGRMIPGFEDGIKGHKAGEEFTIDVTFPEEYHAENLKGKAAKFAINLKKVEERELPELTAEFIKRFGVEDGSVEGLRAEVRKNMERELKSAIRNRVKSQAIEGLVKANDIDVPAALIDSEIDVLRRQAAQRFGGNEKQALELPRELFEEQAKRRVVVGLLLGEVIRTNELKADEERVKGLIEEMASAYEDPKEVIEFYSKNKELMDNMRNVALEEQAVEAVLAKAKVTEKETTFNELMNQQA
- Kd: 1860 nM
